Optical density data for 21 molecules are collected here from patent publication US20210380703A1.

B1: 369_F10 (antibody, V domains shown)
VH: EVQLLESGGGLVQPGGSLRLSCAASGFTFDSYGMNWVRQAPGKGLEWVSNINYNSGYKSYADSVKGRFTISRDNSKNTLYLQMNSLRAEDTAVYYCARSANWHDTALDYWGQGTLVTVSS
VL: DIQMTQSPSSLSASVGDRVTITCRASQSIVTYLNWYQQKPGKAPKLLIYAVTSRASGVPSRFSGSGSGTDFTLTISSLQPEDFATYYCQQSYDLPLTFGGGTKVEIK
B2: 369_G06 (antibody, V domains shown)
VH: EVQLLESGGGLVQPGGSLRLSCAASGFTFDSYGMNWVRQAPGKGLEWVAGINYNGGYTSYADSVKGRFTISRDNSKNTLYLQMNSLRAEDTAVYYCARSANWHDTALDYWGQGTLVTVSS
VL: DIQMTQSPSSLSASVGDRVTITCRASQSILSYVNWYQQKPGKAPKLVIYAATSRASGVPSRFSGSGSGTDFTLTISSLQPEDFATYYCQQSYENPLTFGGGTKVEIK
B3: 370_A04 (antibody, V domains shown)
VH: EVQLLESGGGLVQPGGSLRLSCAASGFTFDSYSMNWVRQAPGKGLEWVSGINYNGGYTSYADSVKGRFTISRDNSKNTLYLQMNSLRAEDTAVYYCARSANWHDTALDYWGQGTLVTVSS
VL: DIQMTQSPSSLSASVGDRVTITCRASQSIITYLNWYQQKPGKAPKLLIYAATSRASGVPSRFSGSGSGTDFTLTISSLQPEDFATYYCQQSYDNPLTFGGGTKVEIK
B4: 369_G04 (antibody, V domains shown)
VH: EVQLLESGGGLVQPGGSLRLSCAASGFTFDSYSMNWVRQAPGKGLEWVSGINYNGGYTSYADSVKGRFTISRDNSKNTLYLQMNSLRAEDTAVYYCARSANWHDTALDYWGQGTLVTVSS
VL: DIQMTQSPSSLSASVGDRVTITCRASQSILTYVNWYQQKPGKAPKLLIYATTSRHSGVPSRFSGSGSGTDFTLTISSLQPEDFATYYCQQSYETPLTFGGGTKVEIK
B5: 369_F11 (antibody, V domains shown)
VH: EVQLLESGGGLVQPGGSLRLSCAASGFTFDSYGMNWVRQAPGKGLEWVSNINYNSGYKSYADSVKGRFTISRDNSKNTLYLQMNSLRAEDTAVYYCARSANWHDTALDYWGQGTLVTVSS
VL: DIQMTQSPSSLSASVGDRVTITCRASQSIISYLNWYQQKPGKAPKLLIYAATSRASGVPSRFSGSGSGTDFTLTISSLQPEDFATYYCQQSYDLPLTFGGGTKVEIK
B6: 369_H06 (antibody, V domains shown)
VH: EVQLLESGGGLVQPGGSLRLSCAASGFTFSSYGMNWVRQAPGKGLEWVANINYNGGYKSYADSVKGRFTISRDNSKNTLYLQMNSLRAEDTAVYYCARSANWHDTALDYWGQGTLVTVSS
VL: DIQMTQSPSSLSASVGDRVTITCRASQSIVSYVNWYQQKPGKAPKLLIYAATSRASGVPSRFSGSGSGTDFTLTISSLQPEDFATYYCQQSYDTPLTFGGGTKVEIK
B7: 370_A03 (antibody, V domains shown)
VH: EVQLLESGGGLVQPGGSLRLSCAASGFTFSSYSMNWVRQAPGKGLEWVSNINYNGGYTSYADSVKGRFTISRDNSKNTLYLQMNSLRAEDTAVYYCARSANWHDTALDYWGQGTLVTVSS
VL: DIQMTQSPSSLSASVGDRVTITCRASQSILSYLNWYQQKPGKAPKLLIYAATSRASGVPSRFSGSGSGTDFTLTISSLQPEDFATYYCQQSYDSPLTFGGGTKVEIK
B8: 370_C05 (antibody, V domains shown)
VH: EVQLLESGGGLVQPGGSLRLSCAASGFTFSSYSMNWVRQAPGKGLEWVAGINYNSGYTGYADSVKGRFTISRDNSKNTLYLQMNSLRAEDTAVYYCARSANWHDTALDYWGQGTLVTVSS
VL: DIQMTQSPSSLSASVGDRVTITCRASQSILSYVNWYQQKPGKAPKLVIYAATSRASGVPSRFSGSGSGTDFTLTISSLQPEDFATYYCQQSYNSPLTFGGGTKVEIK
B9: 370_E06 (antibody, V domains shown)
VH: EVQLLESGGGLVQPGGSLRLSCAASGFTFSSYGMNWVRQAPGKGLEWVSGINYNSGYKSYADSVKGRFTISRDNSKNTLYLQMNSLRAEDTAVYYCARSANWHDTALDYWGQGTLVTVSS
VL: DIQMTQSPSSLSASVGDRVTITCRASQSILSYLNWYQQKPGKAPKLVIYATTSLASGVPSRFSGSGSGTDFTLTISSLQPEDFATYYCQQSYDTPLTFGGGTKVEIK
B10: 370_E09 (antibody, V domains shown)
VH: EVQLLESGGGLVQPGGSLRLSCAASGFTFDDSSMHWVRQAPGKGLEWVSNINYNGGYTGYADSVKGRFTISRDNSKNTLYLQMNSLRAEDTAVYYCAKSANWHDTALDYWGQGTLVTVSS
VL: DIQMTQSPSSLSASVGDRVTITCRASQSILSYVNWYQQKPGKAPKLVIYAATSRASGVPSRFSGSGSGTDFTLTISSLQPEDFATYYCQQSYELPLTFGGGTKVEIK
B11: 369_G12 (antibody, V domains shown)
VH: EVQLLESGGGLVQPGGSLRLSCAASGFTFSSYSMNWVRQAPGKGLEWVANINYNGGYTGYADSVKGRFTISRDNSKNTLYLQMNSLRAEDTAVYYCARSANWHDTALDYWGQGTLVTVSS
VL: DIQMTQSPSSLSASVGDRVTITCRASQSILTYVNWYQQKPGKAPKLVIYAATSRHSGVPSRFSGSGSGTDFTLTISSLQPEDFATYYCQQSDNTPLTFGGGTKVEIK
B12: 370_A12 (antibody, V domains shown)
VH: EVQLLESGGGLVQPGGSLRLSCAASGFTFSSYGMNWVRQAPGKGLEWVAGINYNGGYTSYADSVKGRFTISRDNSKNTLYLQMNSLRAEDTAVYYCARSANWHDTALDYWGQGTLVTVSS
VL: DIQMTQSPSSLSASVGDRVTITCRASQSILTYLNWYQQKPGKAPKLLIYAATSLASGVPSRFSGSGSGTDFTLTISSLQPEDFATYYCQQSYDSPLTFGGGTKVEIK
B13: 370_E03 (antibody, V domains shown)
VH: EVQLLESGGGLVQPGGSLRLSCAASGFTFSSYGMNWVRQAPGKGLEWVSSINYNGGYKGYADSVKGRFTISRDNSKNTLYLQMNSLRAEDTAVYYCARSANWHDTALDYWGQGTLVTVSS
VL: DIQMTQSPSSLSASVGDRVTITCRASQSILTYLNWYQQKPGKAPKLVIYYASNRASGVPSRFSGSGSGTDFTLTISSLQPEDFATYYCQQSYDSPLTFGGGTKVEIK
B14: 369_G11 (antibody, V domains shown)
VH: EVQLLESGGGLVQPGGSLRLSCAASGFTFSSYSMNWVRQAPGKGLEWVANINYNSGYKGYADSVKGRFTISRDNSKNTLYLQMNSLRAEDTAVYYCARSANWHDTALDYWGQGTLVTVSS
VL: DIQMTQSPSSLSASVGDRVTITCRASQSILTYLNWYQQKPGKAPKLLIYAATSLASGVPSRFSGSGSGTDFTLTISSLQPEDFATYYCQQSYESPLTFGGGTKVEIK
B15: 370_D11 (antibody, V domains shown)
VH: EVQLLESGGGLVQPGGSLRLSCAASGFTFDSYSMNWVRQAPGKGLEWVSGINYNGGYTGYADSVKGRFTISRDNSKNTLYLQMNSLRAEDTAVYYCARSANWHDTALDYWGQGTLVTVSS
VL: DIQMTQSPSSLSASVGDRVTITCRASQSIVSYLNWYQQKPGKAPKLLIYAATSRASGVPSRFSGSGSGTDFTLTISSLQPEDFATYYCQQSYDTPLTFGGGTKVEIK
B16: 370_D04 (antibody, V domains shown)
VH: EVQLLESGGGLVQPGGSLRLSCAASGFTFDSYSMNWVRQAPGKGLEWVANINYNSGYKGYADSVKGRFTISRDNSKNTLYLQMNSLRAEDTAVYYCARSANWHDTALDYWGQGTLVTVSS
VL: DIQMTQSPSSLSASVGDRVTITCRASQSILTYLNWYQQKPGKAPKLVIYAATSRASGVPSRFSGSGSGTDFTLTISSLQPEDFATYYCQQSYDNPLTFGGGTKVEIK
B17: 369_H05 (antibody, V domains shown)
VH: EVQLLESGGGLVQPGGSLRLSCAASGFTFSSYGMNWVRQAPGKGLEWVANINYNGGYTGYADSVKGRFTISRDNSKNTLYLQMNSLRAEDTAVYYCARSANWHDTALDYWGQGTLVTVSS
VL: DIQMTQSPSSLSASVGDRVTITCRASQSIVSYVNWYQQKPGKAPKLLIYAATSRASGVPSRFSGSGSGTDFTLTISSLQPEDFATYYCQQSYSNPLTFGGGTKVEIK
B18: 369_H09 (antibody, V domains shown)
VH: EVQLLESGGGLVQPGGSLRLSCAASGFTFDDYSMNWVRQAPGKGLEWVSGINYNGGYTSYADSVKGRFTISRDNSKNTLYLQMNSLRAEDTAVYYCARSANWHDTALDYWGQGTLVTVSS
VL: DIQMTQSPSSLSASVGDRVTITCRASQSILSYVNWYQQKPGKAPKLLIYAVTSLASGVPSRFSGSGSGTDFTLTISSLQPEDFATYYCQQSYESPLTFGGGTKVEIK
B19: 370_C08 (antibody, V domains shown)
VH: EVQLLESGGGLVQPGGSLRLSCAASGFTFSSYGMNWVRQAPGKGLEWVAGINYNGGYKGYADSVKGRFTISRDNSKNTLYLQMNSLRAEDTAVYYCARSANWHDTALDYWGQGTLVTVSS
VL: DIQMTQSPSSLSASVGDRVTITCRASQSISNYLNWYQQKPGKAPKLLIYAVTSRASGVPSRFSGSGSGTDFTLTISSLQPEDFATYYCQQSYDSPLTFGGGTKVEIK
B20: 370_A01 (antibody, V domains shown)
VH: EVQLLESGGGLVQPGGSLRLSCAASGFTFSSYSMNWVRQAPGKGLEWVSGINYNSGYKSYADSVKGRFTISRDNSKNTLYLQMNSLRAEDTAVYYCARSANWHDTALDYWGQGTLVTVSS
VL: DIQMTQSPSSLSASVGDRVTITCRASQSISTYLNWYQQKPGKAPKLVIYAATSRASGVPSRFSGSGSGTDFTLTISSLQPEDFATYYCQQSYNLPLTFGGGTKVEIK
B21: 370_C01 (antibody, V domains shown)
VH: EVQLLESGGGLVQPGGSLRLSCAASGFTFDSYSMNWVRQAPGKGLEWVSGINYNSGYTGYADSVKGRFTISRDNSKNTLYLQMNSLRAEDTAVYYCARSANWHDTALDYWGQGTLVTVSS
VL: DIQMTQSPSSLSASVGDRVTITCRASQSILTYLNWYQQKPGKAPKLVIYAATSLASGVPSRFSGSGSGTDFTLTISSLQPEDFATYYCQQSYDTPLTFGGGTKVEIK

The target in the experiment is Human Fc (human). Put plainly: ELISA, negative control. A general note: In an ELISA, binding on a coated surface is turned into a signal by an enzyme label.
With B1, the optical density is 0.361 OD.

Molecule B2 yielded an optical density of 0.474 OD.

On to B3, for which the optical density was 0.377 OD.

The molecule B4 yielded an optical density of 0.385 OD.

For B5, the optical density is 0.37 OD.

With B6, the optical density was 0.347 OD.

B7 registered an optical density of 0.424 OD.

With B8, the optical density came out at 0.346 OD.

In turn, B9 had an optical density of 0.375 OD.

Take B10: the optical density was found to be 0.338 OD.

With B11, the optical density worked out at 0.353 OD.

In the case of B12, the optical density turned out to be 0.674 OD.

Take B13: the optical density stood at 0.361 OD.

Molecule B14 came in with an optical density of 0.331 OD.

In the case of B15, the optical density amounted to 0.34 OD.

Turning to B16, the optical density turned out to be 0.371 OD.

As to B17, the optical density is 0.457 OD.

In the case of B18, the optical density came to 0.365 OD.

On to B19, for which the optical density turned out to be 0.381 OD.

In turn, B20 showed an optical density of 0.637 OD.

Turning to B21, the optical density is 0.403 OD.
